According to patent US20190322730A1 (NGM BIOPHARMACEUTICALS, published 2019):
Values belong to the binder of their own block, whether it stands above or below them.

What was measured:
[1] = molecular target: T1, human complement component C3 (human, UniProt P01024 23-667; P01024 672-1663); assay: cell-based or functional assay
[2] = molecular target: cynomolgus monkey complement component C3 (cynomolgus monkey, UniProt P01024 24-1663 (human entry)); assay: cell-based or functional assay
[3] = molecular target: T1, human complement component C3; assay: binding screen of Example 5; method and unit not stated
[4] = molecular target: C3a (human, UniProt P01024 672-748); assay: as above
Chain of C3a (P01024 672-748 limits assumed): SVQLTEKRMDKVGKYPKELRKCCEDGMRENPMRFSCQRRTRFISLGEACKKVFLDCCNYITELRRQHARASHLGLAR

[5] = molecular target: C3b (human, UniProt P01024 23-667; P01024 749-1663); assay: as above
Chain of C3b (P01024 23-667 limits assumed, chain 1 of 2): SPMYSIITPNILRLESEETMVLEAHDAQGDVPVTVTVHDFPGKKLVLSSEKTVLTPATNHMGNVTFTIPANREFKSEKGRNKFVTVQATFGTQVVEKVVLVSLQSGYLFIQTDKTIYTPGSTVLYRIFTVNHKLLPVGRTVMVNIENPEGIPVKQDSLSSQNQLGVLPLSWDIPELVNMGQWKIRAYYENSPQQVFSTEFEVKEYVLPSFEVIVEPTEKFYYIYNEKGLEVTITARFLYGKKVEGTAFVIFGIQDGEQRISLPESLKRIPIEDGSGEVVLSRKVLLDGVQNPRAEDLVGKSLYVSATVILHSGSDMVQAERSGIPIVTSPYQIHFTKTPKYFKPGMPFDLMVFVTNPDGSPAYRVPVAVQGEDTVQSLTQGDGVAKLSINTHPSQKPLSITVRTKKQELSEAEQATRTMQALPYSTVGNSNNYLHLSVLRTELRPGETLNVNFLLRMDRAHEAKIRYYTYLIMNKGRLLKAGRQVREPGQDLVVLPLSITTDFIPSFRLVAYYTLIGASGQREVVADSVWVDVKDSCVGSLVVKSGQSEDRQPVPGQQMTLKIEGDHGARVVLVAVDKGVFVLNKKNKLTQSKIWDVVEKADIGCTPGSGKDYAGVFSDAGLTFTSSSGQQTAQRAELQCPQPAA
Chain of C3b (P01024 749-1663 limits assumed, chain 2 of 2): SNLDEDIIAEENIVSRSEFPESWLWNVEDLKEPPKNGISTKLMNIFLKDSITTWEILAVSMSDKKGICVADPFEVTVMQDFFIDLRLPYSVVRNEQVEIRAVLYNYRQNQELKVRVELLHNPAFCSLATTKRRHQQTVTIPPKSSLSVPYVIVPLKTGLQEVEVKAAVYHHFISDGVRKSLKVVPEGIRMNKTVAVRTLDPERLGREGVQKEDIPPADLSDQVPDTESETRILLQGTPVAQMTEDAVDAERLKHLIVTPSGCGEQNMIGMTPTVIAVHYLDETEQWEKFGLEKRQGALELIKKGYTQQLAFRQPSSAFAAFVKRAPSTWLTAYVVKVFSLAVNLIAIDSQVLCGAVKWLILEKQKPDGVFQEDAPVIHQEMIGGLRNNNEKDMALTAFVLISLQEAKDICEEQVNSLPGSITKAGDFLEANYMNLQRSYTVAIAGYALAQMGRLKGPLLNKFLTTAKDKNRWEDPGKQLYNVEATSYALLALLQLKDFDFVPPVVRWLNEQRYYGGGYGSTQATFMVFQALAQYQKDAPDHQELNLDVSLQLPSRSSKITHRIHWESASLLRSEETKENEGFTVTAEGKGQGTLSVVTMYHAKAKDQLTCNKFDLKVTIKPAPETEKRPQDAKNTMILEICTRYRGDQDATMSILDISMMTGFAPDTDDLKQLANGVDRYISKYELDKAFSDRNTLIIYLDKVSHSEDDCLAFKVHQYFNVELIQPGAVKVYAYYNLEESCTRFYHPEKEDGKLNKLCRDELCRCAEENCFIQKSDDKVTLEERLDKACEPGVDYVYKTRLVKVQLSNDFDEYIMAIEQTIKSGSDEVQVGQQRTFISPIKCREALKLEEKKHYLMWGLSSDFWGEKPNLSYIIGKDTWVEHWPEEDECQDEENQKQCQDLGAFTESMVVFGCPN

[6] = molecular target: T2, C3d (UniProt P01024 1002-1303, limits assumed); assay: as above
T2 construct: domain: C3d
T2 sequence (P01024 1002-1303 limits assumed): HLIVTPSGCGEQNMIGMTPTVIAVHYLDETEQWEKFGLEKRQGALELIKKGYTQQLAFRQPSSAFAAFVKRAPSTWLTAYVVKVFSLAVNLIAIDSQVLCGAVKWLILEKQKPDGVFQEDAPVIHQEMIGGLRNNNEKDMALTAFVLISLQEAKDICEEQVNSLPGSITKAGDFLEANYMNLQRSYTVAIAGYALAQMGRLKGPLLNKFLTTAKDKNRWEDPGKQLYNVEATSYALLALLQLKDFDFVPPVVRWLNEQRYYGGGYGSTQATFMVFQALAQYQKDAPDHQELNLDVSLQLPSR

[7] = molecular target: T1, human complement component C3; assay: cell-based or functional assay; remark: listed apart in the source

T1 sequence (P01024 23-667, chain 1 of 2): as the sequence (P01024 23-667 limits assumed, chain 1 of 2) above
T1 sequence (P01024 672-1663, chain 2 of 2): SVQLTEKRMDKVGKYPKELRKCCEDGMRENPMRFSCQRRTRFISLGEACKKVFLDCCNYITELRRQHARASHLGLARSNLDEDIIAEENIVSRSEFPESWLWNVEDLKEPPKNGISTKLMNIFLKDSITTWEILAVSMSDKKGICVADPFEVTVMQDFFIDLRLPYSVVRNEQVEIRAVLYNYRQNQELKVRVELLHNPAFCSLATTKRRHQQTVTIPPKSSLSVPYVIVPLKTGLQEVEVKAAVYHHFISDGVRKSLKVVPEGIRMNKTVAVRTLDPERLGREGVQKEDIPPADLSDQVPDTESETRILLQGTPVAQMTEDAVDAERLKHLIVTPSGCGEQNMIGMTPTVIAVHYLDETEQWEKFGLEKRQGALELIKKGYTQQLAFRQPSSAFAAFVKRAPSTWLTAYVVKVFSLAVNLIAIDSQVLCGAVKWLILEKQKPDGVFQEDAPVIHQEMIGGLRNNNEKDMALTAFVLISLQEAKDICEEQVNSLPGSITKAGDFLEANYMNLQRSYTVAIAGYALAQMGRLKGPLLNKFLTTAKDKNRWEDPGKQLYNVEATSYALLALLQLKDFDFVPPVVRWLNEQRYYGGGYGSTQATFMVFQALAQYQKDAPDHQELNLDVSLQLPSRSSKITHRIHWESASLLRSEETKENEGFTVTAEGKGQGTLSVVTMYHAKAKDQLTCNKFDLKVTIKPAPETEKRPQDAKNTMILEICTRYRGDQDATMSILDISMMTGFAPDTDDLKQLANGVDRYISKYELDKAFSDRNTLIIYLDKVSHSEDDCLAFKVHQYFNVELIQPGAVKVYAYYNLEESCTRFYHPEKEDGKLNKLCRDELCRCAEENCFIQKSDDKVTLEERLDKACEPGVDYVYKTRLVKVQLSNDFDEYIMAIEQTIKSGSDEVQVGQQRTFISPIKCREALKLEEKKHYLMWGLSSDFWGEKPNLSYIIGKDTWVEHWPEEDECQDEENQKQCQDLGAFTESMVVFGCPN
Chain of cynomolgus monkey complement component C3 (P01024 other isoform, or with tags, fused parts or gaps): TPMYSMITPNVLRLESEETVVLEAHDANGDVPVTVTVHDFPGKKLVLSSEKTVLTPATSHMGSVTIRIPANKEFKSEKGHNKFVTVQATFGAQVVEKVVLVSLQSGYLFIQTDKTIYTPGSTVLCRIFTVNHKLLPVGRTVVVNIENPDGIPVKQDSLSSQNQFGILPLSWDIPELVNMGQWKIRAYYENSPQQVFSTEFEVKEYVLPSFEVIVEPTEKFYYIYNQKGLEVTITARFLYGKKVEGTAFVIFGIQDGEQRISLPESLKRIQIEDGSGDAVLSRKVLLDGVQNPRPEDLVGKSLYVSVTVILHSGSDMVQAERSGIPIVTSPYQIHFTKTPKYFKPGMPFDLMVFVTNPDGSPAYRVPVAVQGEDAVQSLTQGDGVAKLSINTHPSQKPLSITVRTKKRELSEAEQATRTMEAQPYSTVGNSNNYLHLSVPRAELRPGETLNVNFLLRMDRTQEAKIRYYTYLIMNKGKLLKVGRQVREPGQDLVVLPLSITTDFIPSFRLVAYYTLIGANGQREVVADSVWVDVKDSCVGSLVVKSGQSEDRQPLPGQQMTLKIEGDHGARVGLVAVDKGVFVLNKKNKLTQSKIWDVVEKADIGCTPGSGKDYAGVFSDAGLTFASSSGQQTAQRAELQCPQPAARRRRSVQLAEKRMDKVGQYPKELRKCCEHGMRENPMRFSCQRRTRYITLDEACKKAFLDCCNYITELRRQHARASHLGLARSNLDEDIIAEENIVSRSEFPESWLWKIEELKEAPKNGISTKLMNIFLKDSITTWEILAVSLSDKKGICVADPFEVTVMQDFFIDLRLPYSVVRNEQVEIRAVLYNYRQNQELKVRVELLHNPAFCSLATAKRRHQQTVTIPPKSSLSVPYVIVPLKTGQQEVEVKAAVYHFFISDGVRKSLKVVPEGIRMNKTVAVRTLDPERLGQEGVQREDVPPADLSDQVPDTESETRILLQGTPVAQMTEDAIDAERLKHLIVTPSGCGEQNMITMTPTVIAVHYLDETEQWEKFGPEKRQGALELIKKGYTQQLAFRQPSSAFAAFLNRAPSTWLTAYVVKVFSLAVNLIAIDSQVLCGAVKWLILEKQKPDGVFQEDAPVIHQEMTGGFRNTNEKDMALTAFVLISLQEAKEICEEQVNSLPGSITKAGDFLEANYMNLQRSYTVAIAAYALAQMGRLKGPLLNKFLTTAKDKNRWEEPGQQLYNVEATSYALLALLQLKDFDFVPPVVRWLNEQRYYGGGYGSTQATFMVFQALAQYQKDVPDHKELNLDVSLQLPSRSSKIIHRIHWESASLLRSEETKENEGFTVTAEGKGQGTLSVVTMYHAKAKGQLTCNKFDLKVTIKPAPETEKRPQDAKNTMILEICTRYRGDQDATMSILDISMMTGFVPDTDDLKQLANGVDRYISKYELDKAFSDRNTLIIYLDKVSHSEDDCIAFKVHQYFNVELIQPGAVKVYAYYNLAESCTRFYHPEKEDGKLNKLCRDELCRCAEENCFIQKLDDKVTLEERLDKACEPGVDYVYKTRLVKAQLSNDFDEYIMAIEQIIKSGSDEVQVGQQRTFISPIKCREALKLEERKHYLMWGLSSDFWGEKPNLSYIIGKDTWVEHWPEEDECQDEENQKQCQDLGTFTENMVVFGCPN

B1: antibody 27A8 (antibody, V domains shown)
VH: QVQLLQPGAEFVKPGASVKLSCKASGYTFTDYWINWVKQRPGQGLEWIGNIYPGSTSANYNEKFKSKATLTIDTSSITAYMQLSSLTSDDSAVYYCARYGYDSWFAYWGQGTLVTVSA
VL: DVVLTQTPLSLPVNIGDQASISCKSTKSLLNSDGFTYLDWFLQKPGQSPHLLIYLVSNRFSGIPDRFSGSGSETDFTLKISRVEAEDLGVYYCFQSNYLPLTFGSGTKLEIK
Hemolytic Assay IC50, Human AP [1]: 8.5 nM
Hemolytic Assay IC50, Human CP [1]: 7.6 nM
Hemolytic Assay IC50, Cyno AP [2]: 9.6 nM

B4: antibody 3G8 (antibody, V domains shown)
VH: EIQLQQSGAELVKPGASVKISCMASGYSFTGYNMNWVKQSHGKGLEWIGNINPYYDSTSYNQKFKGKATLTVDKSSSTAYMQLNSLTSEDSAVYYCARENYDFVGFAYWGQGTLVTVSA
VL: QIVLSQSPAILSASPGEKVTMTCRASSSVSYMHWFQQKPGSSPKPWIYVTSNLASGVPPRFSGSGSGTSYSLTISRVEAEDAATYYCQQWSTNPLTFGAGTKLELK
notes: Mouse hybridoma antibody
Hemolytic Assay IC50, Human AP [1]: 6.8 nM
Hemolytic Assay IC50, Human CP [1]: 10.4 nM
Hemolytic Assay IC50, Cyno AP [2]: 20.9 nM
Hemolytic Assay IC50, Cyno CP [2]: 102 nM
binding relative to negative control mIgG2 [3]: 0.37
binding relative to negative control mIgG2 [4]: -0.01
binding relative to negative control mIgG2 [5]: 0.33
binding relative to negative control mIgG2 [6]: 0

B5: Fab version of Hz38G10 (Fab, V domains shown)
VH: QVQLVQSGAEVKKPGASVKVSCKASGYTFTDFYMDWVRQAPGQRLEWMGYIYPHNGGTTYNQQFTGRVTITVDKSASTAYMELSSLRSEDTAVYYCARRGGFDFDYWGQGTLVTVSS
VL: DIQMTQSPSSLSASVGDRVTITCKASENVDTYVSWYQQKPGKAPKLLIYGASNRYTGVPSRFSGSGSGTDFTFTISSLQPEDIATYHCGQSHSYPLTFGQGTKLEIK
AP human C3 IC50 (hemolysis) [7]: 16 nM
CP human C3 IC50 (hemolysis) [7]: 17.8 nM

Further lines, with some results ahead:

binding relative to negative control mIgG2 [3]: 0.7
binding relative to negative control mIgG2 [4]: -0.04
binding relative to negative control mIgG2 [5]: 0.61
binding relative to negative control mIgG2 [6]: 0.01
B2: antibody 62F2 (antibody, V domains shown)
VH: DVQLQESGPDLVKPSQSLSLTCTVTGYSITSGYSLHWIRQFPGNKLEWMGYIHYSGSTNYNPSLKSRISITRDTSKNQFFLKLNSVTSEDTATYHCARAWDYLDYWGQGTTLTVSS
VL: DIQMTQSPASLSASVGETVTITCRASENIYSQLAWYQQKQGKSPQLLVYDAKTLAEGVPSRFSGSGSDTQFSLKIISLQPEDFGRYYCHHHFGILYTFGGGTKLEMK
notes: Mouse hybridoma antibody
Hemolytic Assay IC50, Human AP [1]: 5.7 nM
Hemolytic Assay IC50, Human CP [1]: 5 nM
Hemolytic Assay IC50, Cyno AP [2]: 8.7 nM
Hemolytic Assay IC50, Cyno CP [2]: 5.3 nM

binding relative to negative control mIgG2 [3]: 0.95
binding relative to negative control mIgG2 [4]: -0.02
binding relative to negative control mIgG2 [5]: 0.83
binding relative to negative control mIgG2 [6]: 0.01
B3: antibody 63A3 (antibody, V domains shown)
VH: DVQLQESGPGLVKPSQSLSLTCSVTGYSITSGYYWNWIRQFPGNKLEWMGYIRYDGSNNYNPSLKNRISITRDTSKNQVFLKLNSVTPEDTATYYCARHYGYDGGAFDFWGQGTTLTVSS
VL: DIQMTQSPASLSASVGETVTITCRTSENIYNYLVWYQQKQGKSPQLLVYNAKTLEEGVPSRFSGSGSGTQFSLKVNSLQPEDFGSYYCQHHYGTPFTFGSGTKLEIK
notes: Mouse hybridoma antibody
Hemolytic Assay IC50, Human AP [1]: 6.5 nM
Hemolytic Assay IC50, Human CP [1]: 4.1 nM
Hemolytic Assay IC50, Cyno AP [2]: 3.4 nM
Hemolytic Assay IC50, Cyno CP [2]: 1.6 nM

binding relative to negative control mIgG2 [3]: 0.66
binding relative to negative control mIgG2 [4]: 0.11
binding relative to negative control mIgG2 [5]: 0.09
binding relative to negative control mIgG2 [6]: 0.01
B6: antibody 28C3 (antibody, V domains shown)
VH: QVQLQQSGPELVKPGASVKISCKASGYAFNSCWMNWVKQRPGKGLEWIGRIYPGDGDTNYNGKFKGKATLTADKSSTTAYMQLSSLTSEDSAVYFCAREGRNYGYEDYWGQGTTLTVSS
VL: DIVLTQSPASLAVSLGQRATISCKASQSVDYDGDSYMNWYQQKPGQPPKLLIYAASDLESGIPARFSGSGSGTDFTLNIHPVEEEDAATYYCQQANEDPRTFGGGTKLEIK
notes: Mouse hybridoma antibody
Hemolytic Assay IC50, Human AP [1]: 8 nM
Hemolytic Assay IC50, Human CP [1]: 6.5 nM
Hemolytic Assay IC50, Cyno AP [2]: 7.8 nM
Hemolytic Assay IC50, Cyno CP [2]: 3.4 nM
